These results are taken from patent US20180155413A1 (AstraZeneca / MedImmune, published 2018).

The target in this experiment is recombinant HA derived from A/California/07/2009 H1N1 (influenza A virus, UniProt P26140 18-529). As to the kind of experiment: ELISA, rHA coated on plate. Background: An ELISA detects its analyte on a solid surface through an enzyme-linked reagent.

B1: FY1/94 BiS2 100/44 (bispecific antibody)
light: DIQMTQSPSSLSASVGDRVTITCRTSQSLSSYLHWYQQKPGKAPKLLIYAASSLQSGVPSRFSGSGSGTDFTLTISSLQPEDFATYYCQQSRTFGQGTKVEIKRTVAAPSVFIFPPSDEQLKSGTASVVCLLNNFYPREAKVQWKVDNALQSGNSQESVTEQDSKDSTYSLSSTLTLSKADYEKHKVYACEVTHQGLSSPVTKSFNRGEC
heavy: not shown
For orientation: EC50 means the concentration that produces a half-maximal response. With B1, the EC50 is 6.83 nM.

B2: FY1/39 BiS3 100/44 (bispecific antibody)
light: DIQMTQSPSSLSASVGDRVTITCRTSQSLSSYLHWYQQKPGKAPKLLIYAASSLQSGVPSRFSGSGSGTDFTLTISSLQPEDFATYYCQQSRTFGQGTKVEIKRTVAAPSVFIFPPSDEQLKSGTASVVCLLNNFYPREAKVQWKVDNALQSGNSQESVTEQDSKDSTYSLSSTLTLSKADYEKHKVYACEVTHQGLSSPVTKSFNRGEC
heavy: not shown
In the case of B2, the EC50 came to 1.52 nM.

B3: FY1/39 BiS2 100/44 (bispecific antibody)
light: DIQMTQSPSSLSASVGDRVTITCRTSQSLSSYLHWYQQKPGKAPKLLIYAASSLQSGVPSRFSGSGSGTDFTLTISSLQPEDFATYYCQQSRTFGQGTKVEIKRTVAAPSVFIFPPSDEQLKSGTASVVCLLNNFYPREAKVQWKVDNALQSGNSQESVTEQDSKDSTYSLSSTLTLSKADYEKHKVYACEVTHQGLSSPVTKSFNRGEC
heavy: not shown
Regarding B3, the EC50 was 3.97 nM.

B4: FY1/94 BiS4 100/44 (bispecific antibody)
light: DIQMTQSPSSLSASVGDRVTITCRTSQSLSSYLHWYQQKPGKAPKLLIYAASSLQSGVPSRFSGSGSGTDFTLTISSLQPEDFATYYCQQSRTFGQGTKVEIKRTVAAPSVFIFPPSDEQLKSGTASVVCLLNNFYPREAKVQWKVDNALQSGNSQESVTEQDSKDSTYSLSSTLTLSKADYEKHKVYACEVTHQGLSSPVTKSFNRGEC
heavy: not shown
On to B4, for which the 50% effective concentration (EC50) came to 1.53 nM.

B5: FY1/39 BiS4 100/44 (bispecific antibody)
light: DIQMTQSPSSLSASVGDRVTITCRTSQSLSSYLHWYQQKPGKAPKLLIYAASSLQSGVPSRFSGSGSGTDFTLTISSLQPEDFATYYCQQSRTFGQGTKVEIKRTVAAPSVFIFPPSDEQLKSGTASVVCLLNNFYPREAKVQWKVDNALQSGNSQESVTEQDSKDSTYSLSSTLTLSKADYEKHKVYACEVTHQGLSSPVTKSFNRGEC
heavy: not shown
With B5, the EC50 was found to be 1.19 nM.

B6: GL20/39 BiS4 100/44 (bispecific antibody)
light: DIQMTQSPSSLSASVGDRVTITCRTSQSLSSYTHWYQQKPGKAPKLLIYAASSRGSGVPSRFSGSGSGTDFTLTISSLQPEDFATYYCQQSRTFGQGTKVEIKRTVAAPSVFIFPPSDEQLKSGTASVVCLLNNFYPREAKVQWKVDNALQSGNSQESVTEQDSKDSTYSLSSTLTLSKADYEKHKVYACEVTHQGLSSPVTKSFNRGEC
heavy: not shown
Turning to B6, the EC50 turned out to be 0.95 nM.

B7: FY1/39 BiS4 43/105 (bispecific antibody)
light: DIQMTQSPSSLSASVGDRVTITCRTSQSLSSYLHWYQQKPGKAPKLLIYAASSLQSGVPSRFSGSGSGTDFTLTISSLQPEDFATYYCQQSRTFGQGTKVEIKRTVAAPSVFIFPPSDEQLKSGTASVVCLLNNFYPREAKVQWKVDNALQSGNSQESVTEQDSKDSTYSLSSTLTLSKADYEKHKVYACEVTHQGLSSPVTKSFNRGEC
heavy: not shown
As to B7, the EC50 was 0.78 nM.

B8: GL20/39FTL BiS4 43/105 (bispecific antibody)
light: DIQMTQSPSSLSASVGDRVTITCRTSQSLSSYTHWYQQKPGKAPKLLIYAASSRGSGVPSRFSGSGSGTDFTLTISSLQPEDFATYYCQQSRTFGQGTKVEIKRTVAAPSVFIFPPSDEQLKSGTASVVCLLNNFYPREAKVQWKVDNALQSGNSQESVTEQDSKDSTYSLSSTLTLSKADYEKHKVYACEVTHQGLSSPVTKSFNRGEC
heavy: not shown
In the case of B8, the concentration for a half-maximal effect (EC50) was 0.86 nM.

B9: FY1 IgG (antibody, V domains shown)
VH: QVQLQESGPGLVKPSQTLSLTCAISGDSVSSNNAVWNWIRQSPSRGLEWLGRTYYRSKWYNDYAESVKSRITVNPDTSKNQFSLHLKSVTPEDTAVFYCVRSGHITVFGVNVDAFDMWGQGTMVTVSS
VL: DIQMTQSPSSLSASVGDRVTITCRTSQSLSSYLHWYQQKPGKAPKLLIYAASSLQSGVPSRFSGSGSGTDFTLTISSLQPEDFATYYCQQSRTFGQGTKVEIK
For the molecule B9, the 50% effective concentration (EC50) is 2.15 nM.

B10: GL20/39FTL BiS4 100/44 (bispecific antibody)
light: DIQMTQSPSSLSASVGDRVTITCRTSQSLSSYTHWYQQKPGKAPKLLIYAASSRGSGVPSRFSGSGSGTDFTLTISSLQPEDFATYYCQQSRTFGQGTKVEIK
heavy (part 1 of 2): QVQLQQSGPGLVKPSQTLSLTCAISGDSVSSYNAVWNWIRQSPSRGLEWLGRTYYRSGWYNDYAESVKSRITINPDTSKNQFSLQLNSVTPEDTAVYYCARSGHITVFGVNVDAFDMWGQGTMVTVSS
heavy (part 2 of 2): DIQMTQSPSSVSASVGDRVTITCRASQDISTWLAWYQQKPGKAPKLLIYAASSLQSGVPSRFSGSGSGTDFTLTISSLQPEDFATYYCQQANSFPPTFGCGTKLEIKGGGGSGGGGSGGGGSGGGGSEVQLVESGGGLVKPGGSLRLSCAASGFTFLNAWMSWVRQAPGKCLEWVGRIKSNTDGGTTDYAAPVKGRFTISRDDSKNTLYLQMSSLKTEDTAVYYCTTDGPYSDDFRSGYAARYRYFGMDVWGQGTTVTVSS
Consider B10, for which the EC50 worked out at 0.99 nM.

B11: GL20 IgG (antibody, V domains shown)
VH: QVQLQQSGPGLVKPSQTLSLTCAISGDSVSSYNAVWNWIRQSPSRGLEWLGRTYYRSGWYNDYAESVKSRITINPDTSKNQFSLQLNSVTPEDTAVYYCARSGHITVFGVNVDAFDMWGQGTMVTVSS
VL: DIQMTQSPSSLSASVGDRVTITCRTSQSLSSYTHWYQQKPGKAPKLLIYAASSRGSGVPSRFSGSGSGTDFTLTISSLQPEDFATYYCQQSRTFGQGTKVEIK
Regarding B11, the EC50 came to 1.99 nM.

B12: FBC39 IgG (antibody, V domains shown)
VH: EVQLVVSGGGLVKPGGSLRLSCAASGLSFLNAWMSWVRQAPGKGLEWVGRIKSNTDGGTTDYAAPVKGRFSISRDDSKNMLFLHMSSLRTEDTAVYYCATDGPYSDDFRSGYAARYRYFGMDVWGQGTTVTVSS
VL: DIQMTQSPSSVSASVGDRVTITCRASQDISTWLAWYQQKPGKAPKLLIYAASSLQSGVPSRFSGSGSGTDFTLTISSLQPEDFATYFCQQANSFPPTFGQGTKLEIK
Consider B12, for which the binding result was “no binding”.

B13: FBD94 IgG (antibody, V domains shown)
VH: EVQLVESGGGLVQPGRSLRLSCAVSGFIFEDYAINWVRQAPGKGLEWVSIISWDSGRIGYADSVRGRFTISRDNAKNSSFLQMNSLRPEDTAVYYCVKDMLAYYYDGSGIRYNLYGMDVWGQGTTVTVSS
VL: EIVLTQSPATLSLSPGERATLSCRASRSITTFLAWYQQKPGQAPRLLIYDASNRATGVPARFSGSGSGTDFTLTINSLEPDDFAIYYCQQRDHWPPIFGQGTRLEIK
For B13, the binding result is reported as “no binding”.

B14: FY1/39 BiS1 100/44 (bispecific antibody)
light: DIQMTQSPSSVSASVGDRVTITCRASQDISTWLAWYQQKPGKAPKLLIYAASSLQSGVPSRFSGSGSGTDFTLTISSLQPEDFATYFCQQANSFPPTFGCGTKLEIKGGGGSGGGGSGGGGSGGGGSEVQLVVSGGGLVKPGGSLRLSCAASGLSFLNAWMSWVRQAPGKCLEWVGRIKSNTDGGTTDYAAPVKGRFSISRDDSKNMLFLHMSSLRTEDTAVYYCATDGPYSDDFRSGYAARYRYFGMDVWGQGTTVTVSSGGGGSGGGGSDIQMTQSPSSLSASVGDRVTITCRTSQSLSSYLHWYQQKPGKAPKLLIYAASSLQSGVPSRFSGSGSGTDFTLTISSLQPEDFATYYCQQSRTFGQGTKVEIKRTVAAPSVFIFPPSDEQLKSGTASVVCLLNNFYPREAKVQWKVDNALQSGNSQESVTEQDSKDSTYSLSSTLTLSKADYEKHKVYACEVTHQGLSSPVTKSFNRGEC
heavy: not shown
Take B14: the EC50 was 6.85 nM.
